T1: constitutively active bovine Rab3A (Q81L), full-length, bait in pBTM116 (bovine, UniProt P11023 1-220)
T1 construct: also called active Rab3A (Q81L); not shown: fusion partner encoded by bait vector pBTM116
T1 sequence (looked up): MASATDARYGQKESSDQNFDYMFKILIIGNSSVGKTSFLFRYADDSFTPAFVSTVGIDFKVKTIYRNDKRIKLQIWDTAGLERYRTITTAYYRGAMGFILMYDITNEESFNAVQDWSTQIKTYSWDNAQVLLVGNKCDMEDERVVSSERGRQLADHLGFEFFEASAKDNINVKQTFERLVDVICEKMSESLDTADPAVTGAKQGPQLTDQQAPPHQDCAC

B1: rat Rim1 zinc finger domain (amino acid residues 1-204), prey in pVP16 (other, UniProt Q9JIR4 1-204, looked up)
chain: MSSAVGPRGPRPPTVPPPMQELPDLSHLTEEERNIIMAVMDRQKEEEEKEEAMLKCVVRDMAKPAACKTPRNAESQPHQPPLNIFRCVCVPRKPSSEEGGPERDWRLHQQFESYKEQVRKIGEEARRYQGEHKDDAPTCGICHKTKFADGCGHLCSYCRTKFCARCGGRVSLRSNNEDKVVMWVCNLCRKQQEILTKSGAWFFG
notes: range 1-204; not shown: fusion partner encoded by prey vector pVP16

Assays:
[1] = molecular target: endogenous Rim2 of PC12 cells; assay: cell-based or functional assay
[2] = molecular target: T1, constitutively active bovine Rab3A …; assay: yeast two-hybrid, liquid β-galactosidase assay

Row | Molecule | 8-Br-cAMP (1 mM)-induced, Ca2+-dependent GH secretion [1] | binding result [2]
1 | wild-type cAMP-GEFII (expressed in PC12 cells from pSRα) (from UniProt Q9EQZ6 1-1011) | 34.9% | –
2 | B1 | – | binds
